B1: Rodent hepatovirus (nucleic acid, listed as Hepatovirus sp.)
DNA: TTCAAAGAGGGGTCCGGGATTTTCCTGGTCCCCCTCTTTGGGCACCCTTGGCTCGGGGGTGTGAATACCGTGCTCGCGTTTGCCGTGCGTTAACGGCTTCATTTATGTTTGTTTGTCTGTTTTATTATGTTGGTTTGTCTGTTTGTTATGTTGGTATTGTTCGTGTTTAATGTTATGACCACATTACACTCCAGCCAATGAAGAACAGATGGTGCGGTTATTGCTGGCGGAATTCCTAACGTCCTGGATCCGTTGGTACGCATCACAAAACAATTTGCAGAGAGAGTGGTGAAACGGCTTGGGAATCCCTGAGTACAGGGAAATCACACTGATAGCTCATCTTGGCTGTTTTCAGTCATGGACCTTATGCAGTGTAATTTGGGTGTACCCCCCATAGCTTAGGAGGAATGTTCTGTCTTGGCACTAGAGTGGGACGCTGATGCCTCCGTGTCTAGGATGGTCTAAGGGACAGAATGGGGTGCCTCTGATGCCATACTACCTGATAGGGTGCTCTCACGGCCTCTGCATCTTAGTGAGAAGTTCAATTTT
B2: Livupivirus (nucleic acid, listed as Livupivirus sp.)
DNA: TATCTACATGGGGATCCAGGCTGTATGGAATGTCTGTCTTAACAAGCACTATACCAGAAAGATCCACCCAAAGTGGTGGGACTGGGACTGTGAGGTGAGAAATCCCGAAACCAGCCTTCTCAAGCGTCGGACGATCTTTCTGTTTTAGTGAACACCTTGCCTTTTAAATGGATGACAACACCCCTTCAGCAAATCGCAATCTGAAATCCCAAAAGACTGTTTAGCCGAACTCTGGTAATCACTCCGGAGAAGTAGGATACGCAGCCCCTGTGGACTCTTGATTTCAGGACTCAAGGTAGCTAGAGCTGGAACTTCATGGAATGACAAAGGAATATATGCACATTGTGCGCTTTCCTGGCCTTGTAGCCCGTCGTGAGGATATGTCGTTGGGAATCGACATCTTAGTCCAGTACTGCTTGATAGAGTGTCGGCTGGCACAGTTACCTGAGAATAAGTCAGTTGTACTTAACATGAACAAAAAAAATAACTACCACAACTACCACAATCTACCAATACTTGAATTATGCTGAATCTCGTACAGTAAAAACGTTCCGTGGAAGGACAAGTATTGAAGTGCGGTTACATCATCCGATACGCGCTGGATCCCTCA
B3: Rabovirus A (nucleic acid)
DNA: CTACGGATATTTGCATGACCCGCTTTCTATCGCCCCAACAATCCCCTTTGTAACCACAAGCTTTACTCAGGCTAGCAGCCCGACTAGCTGTTTGGAAGAAAAGGCTAGGGCACACACCAACAACACCGACCCCACTGGTCGAAGGCCGCTTGGCAATAAGACTGGTGGAACAGGGTCGCCTGTAGTTGTTTGGAACATTCTTTCTAATGACTTTGTCAGCGGTGCTACTCACACCGTAACTCTTCTACCCTATCCCCACGCTTGTGGAACTAGGAGGGGATGAGTGATTCAAGTAAGTACTGTCAGAATGGTGAAAATGATCTGATTCTGAAACGCTATGGATCCATCGAAAGATGGGGCTACACGCCTGCGGAACAACACATGGTAACATGTGCCCCAGGGGCCGAAAGCCACGGTGATAGGATCACCCGTGTAGTTTGAGATCATATCAATGTTCATAGTCTAGTAAGATGATTTGAAATCTAACTGAGCTGATGGCTAACTGCTTGTCTTATTGCGGCCTAAGGATGTCCTGCAGGTACCTTTAGATAACCTTAAGAGACTATTGATCTGAGCAGGAGCCAAAGTGGTCTTTCCCAGCTTTGGTTAAAAAACGTCTAAGCCGCGGCAGGGGGCGGGAGGCCCCCTTTCCTCCCAAAACTTAATATTGATTGT
modifications: Rabovirus A
B4: Sclerotinia sclerotiorum dsRNA mycovirus-L (nucleic acid)
DNA: TTGAATTAATCTTTTACGTTTACGCGCATAAAATCAGGACACATCTCTTGTATACTTTAGTATATCAATGATGTTTTTGTTTTATGCGATTAATCGTAAGAGAACTTCTTTCCATCCGCCTGTATGGGCGGGATAATAAGTTCACCGCCTTGGTCGAGGCGCAAACTTGTATGTGCAAAGGTGAGCTATATGCTCGAAATAGTCGTAACTAACACACAGCCACTACCTGTAGAGCTCTATTGATCCGGAATCCTTTAGTGGGAATGCAGAGCTCACACCGGACCTGCGGGTATCTTCGGCGTTAGGGACTTCTGTTTCAGCCTTGAATCATTTACCTTTATACCTTCTCTGAGGCGCCTGGGCCGGGCGCGATATTAAGTACAAGTCAAGGACATCGCGGGTAGTGGTCTAATCAGCCGCTAGTCCTGCTGGAGAGTTCCAACTTAGTTGGGTGTGGTGCATACTAGCTGGATAGAGTAGGTATGTATTGCTAACGTATGCCGGAGGCTATCCGTCCTCGGTAGAACGTGCCGAGGAGTAGTCTCTGCAGACCCCCGAACGCGTGGGGTCTTTACTTAAATGTAGGCGGAGGGAGCGCTCGTAGGTGGAACGACTGCCTCCCAGTCGAATGCAAGATTTTGCACGCGGACCAGTCTGCCCGGCAATTCCCGGGTG
B5: Shingleback nidovirus 1 (nucleic acid)
DNA: CTGTGAGTACCGACAGGCTCGAAGTCTATTATGAGGCGTCGAAACAGAAAACCTGTAACAACTCCGGTTTCATCTATCACTGCCGTCAAGAGGCAGAAGAGGACGACCACGTGTCACCAGATCACTTGTATCTGTTTCAGTCAGGAAGTCAACTTTTCGACGAAGTTCGACCATTCATCGACCCGCTGAAAAGCGTAGAAGTCGATGAAGATGAGCTCCAAAGAGCCATCGCCGATTTCGACAACCAAAGTGACTGTTTCCACTCCTTCGAGCTCGTGAATTTCGAGCTGAAACAACAAATCAACGAGAACGAGTGGTACGGTTATTATAATTACGACAACCAAAACTGCAAAGTTCAGTTGCCAGTCACATGTCGAATCGAGGACGTAACCTGGGATCAGGTTTACGTG
modifications: Shingleback nidovirus 1
B6: Seneca valley virus (nucleic acid)
DNA: TTTGAAATGGGGGGCTGGGCCCTGATGCCCAGTCCTTCCTTTCCCCTTCCGGGGGGTTAACCGGCTGTGTTTGCTAGAGGCACAGAGGGGCAACATCCAACCTGCTTTTGCGGGGAACGGTGCGGCTCCGATTCCTGCGTCGCCAAAGGTGTTAGCGCACCCAAACGGCGCACCTACCAATGTTATTGGTGTGGTCTGCGAGTTCTAGCCTACTCGTTTCTCCCCCGACCATTCACTCACCCACGAAAAGTGTGTTGTAACCATAAGATTTAACCCCCGCACGGGATGTGCGATAACCGTAAGACTGGCTCAAGCGCGGAAAGCGCTGTAACCACATGCTGTTAGTCCCTTTATGGCTGCAAGATGGCTACCCACCTCGGATCACTGAACTGGAGCTCGACCCTCCTTAGTAAGGGAACCGAGAGGCCTTCGTGCAACAAGCTCCGACACAGAGTCCACGTGACTGCTACCACCATGAGTACATGGTTCTCCCCTCTCGACCCAGGACTTCTTTTTGAATATCCACGGCTCGATCCAGAGGGTGGGGCATGACCCCTAGCATAGCGAGCTACAGCGGGAACTGTAGCTAGGCCTTAGCGTGCCTTGGATACTGCCTGATAGGGCGACGGCCTAGTCGTGTCGGTTCTATAGGTAGCACATACAAAT

What follows are molecules tested on HEK293 cells. Conditions: luminescence from secreted Gluc in supernatant 24 hours after transfection of HEK293 cells; circular RNA encoding Gluc with the named IRES (UTR truncated to 675 nt).
Format: cell-based, human

Row | Molecule | Expression
1 | B1 | 1.39E+05
2 | B2 | 2.10E+05
3 | B3 | 2.88E+06
4 | B4 | 1.69E+05
5 | B5 | 2.62E+05
6 | B6 | 1.46E+07
